This assay addresses MERS-CoV S2 stem helix peptide (MERS-CoV).

Chain of S2P6 (antibody) (VH): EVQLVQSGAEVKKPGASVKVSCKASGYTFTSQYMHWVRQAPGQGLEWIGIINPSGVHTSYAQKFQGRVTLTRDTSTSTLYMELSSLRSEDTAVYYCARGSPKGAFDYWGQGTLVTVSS
Chain of S2P6 (antibody) (VL): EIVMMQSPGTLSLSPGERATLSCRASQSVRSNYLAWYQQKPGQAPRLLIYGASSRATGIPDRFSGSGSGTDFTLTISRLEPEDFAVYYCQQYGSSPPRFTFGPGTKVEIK

As for S2P6 (antibody), the IC50 of neutralisation of MERS-CoV pseudovirus (HeLa-hDPP4 cells) is 8.37 µg/mL.

The values above are taken from paper PMC13480645.
